# Source: the RNAGym collection of RNA variant scans (doi:10.1093/molbev/msab373)
# B1: Azoarcus group I ribozyme (parent)
# chain: GUGCCUUGCGCCGGGAAACCACGCAAGGGAUGGUGUCAAAUUCGGCGAAACCUAAGCGCCCGCCCGGGCGUAUGGCAACGCCGAGCCAAGCUUCGGCGCCUGCGCCGAUGAAGGUGUAGAGACUAGACGGCACCCACCUAAGGCAAACGCUAUGGUGAAGGCAUAGUCCAGGGAGUGGCGAAAGUCACACAAACCGG
# Variants of: B1
# Experiment: reverse-splicing fitness (ratio to wild type); higher = more active; in vitro selection; Mg2+ level not given
# Summary of the method: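 An in vitro group I ribozyme library with randomized positions was T7-transcribed and gel-purified. In triplicate, 10 pmol RNA in EPPS pH 7.5 was reacted with 50 pmoles of a 30-nt RNA substrate for 1 h at 37 °C across several added MgCl2 levels (1–48 mM), then stopped with EDTA. Products were reverse transcribed from a substrate-complementary primer, PCR-amplified and sequenced (HiSeq 4000). Fitness is a variant's read proportion after selection over that before, normalised to wild type.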
row,Variant,reverse-splicing fitness
1,A111G A120G A145U C169A U176C,0.0642
2,A111G A120G A145U C169A U176A,0.0397
3,A111G A120G A145U C169A U176G,0.00646
4,A111G A120G C169U U176A,0.0845
5,A111G A120G C169U U176C,0.0969
6,A111G A120G C169U U176G,0.011
7,A111G A120G A145U C150A C169U U176G,0.00518
8,A111G A120G A145U C150A C169U U176A,0.0273
9,A111G A120G A145U C150A C169U U176C,0.0198
10,A111G A120G A145U C169A,0.174
11,A111G A120G A145U C169G,0.33
12,A111G A120G A145U C169U,0.232
13,A111G A120G A145U C150G U176A,0.0126
14,A111G A120G A145U C150G U176C,0.0217
15,A111G A120G A145U C150G U176G,0.00354
16,A111G A120G C150G C169A,0.0164
17,A111G A120G C150G C169U,0.0264
18,A111G A120G C150G C169G,0.0259
19,A111G A120G A145G C169G,0.329
20,A111G A120G A145G C169U,0.252
21,A111G A120G A145G C169A,0.188

row,Variant,reverse-splicing fitness
1,A111G A120U A145U C150A C169G U176A,0.00286
2,A111G A120U A145U C150A C169G U176C,0.00285
3,A111G A120U A145U C150A C169G U176G,0.00159
4,A111G A120U A145G C169G U176G,0.00189
5,A111G A120U A145G C169G U176C,0.0201
6,A111G A120U A145G C169G U176A,0.00934
7,A111G A120U A145G C150G C169A,0.00794
8,A111G A120U A145G C150G C169G,0.0123
9,A111G A120U A145G C150G C169U,0.0149
10,A111G A120U A145U C169A U176C,0.00348
11,A111G A120U A145U C169A U176G,0.00131
12,A111G A120U A145U C169A U176A,0.00236
13,A111G A120U A145G C150A C169G U176G,0.00256
14,A111G A120U A145G C150A C169G U176A,0.0104
15,A111G A120U A145G C150A C169G U176C,0.00584
16,A111G A120G C150U U176G,0.00879
17,A111G A120G C150U U176C,0.0801
18,A111G A120G C150U U176A,0.0505
19,A111G A120G A145G U176A,0.0808
20,A111G A120G A145G U176C,0.12
21,A111G A120G A145G U176G,0.00937

row,Variant,reverse-splicing fitness
1,A111G A120U A145C C150U C169G U176C,0.0028
2,A111G A120U A145C C150U C169G U176A,0.00436
3,A111G A120U A145C C150U C169G U176G,0.00177
4,A111G A120U A145C C150U C169A U176A,0.00259
5,A111G A120U A145C C150U C169A U176G,0.00196
6,A111G A120U A145C C150U C169A U176C,0.00228
7,A111G A120U A145U C150A U176G,0.018
8,A111G A120U A145U C150A U176A,0.0447
9,A111G A120U A145U C150A U176C,0.0372
10,A111G A120U A145U C150U C169G U176A,0.00842
11,A111G A120U A145U C150U C169G U176C,0.009
12,A111G A120U A145U C150U C169G U176G,0.00232
13,A111G A120U A145G C169A,0.00517
14,A111G A120U A145G C169G,0.087
15,A111G A120U A145G C169U,0.126
16,A111G A120U A145C C150G C169G U176G,0.00213
17,A111G A120U A145C C150G C169G U176C,0.0019
18,A111G A120U A145C C150G C169G U176A,0.00296
19,A111G A120G C169G U176A,0.09
20,A111G A120G C169G U176C,0.119
21,A111G A120G C169G U176G,0.00692

row,Variant,reverse-splicing fitness
1,A111G A120U,0.785
2,A111G A120G C150U C169A U176C,0.0419
3,A111G A120G C150U C169A U176A,0.0291
4,A111G A120G C150U C169A U176G,0.00588
5,A111G A120G A145G C169G U176C,0.134
6,A111G A120G A145G C169G U176G,0.00622
7,A111G A120G A145G C169G U176A,0.0887
8,A111G A120U A145G C150U U176C,0.285
9,A111G A120U A145G C150U U176G,0.0427
10,A111G A120U A145G C150U U176A,0.237
11,A111G A120U A145C C169A U176G,0.0014
12,A111G A120U A145C C169A U176C,0.0018
13,A111G A120U A145C C169A U176A,0.00226
14,A111G A120G C150A U176C,0.0301
15,A111G A120G C150A U176G,0.00663
16,A111G A120G C150A U176A,0.0188
17,A111G A120G A145U C150U U176G,0.00788
18,A111G A120G A145U C150U U176C,0.0782
19,A111G A120G A145U C150U U176A,0.0608
20,A111G A120G A145U C150U C169U U176C,0.0675
